Data reported in publication PMC5951372.

How the values were obtained:
[1] = molecular target: murine double minute 2 (MDM2) protein fragment; assay: atomic force microscopy; topographic maps of 20 x 20 µm^2 of the MDM2-functionalised photonic crystal surface after incubation with p53 (1.5 uM, 20 min); binding spots 10-20 nm high counted as p53•MDM2 complex; design: unit not given here
[2] = molecular target: murine double minute 2 (MDM2) protein fragment; assay: photonic crystal bound-states-in-the-continuum resonance shift (label-free optical biosensor); MDM2 immobilised on the Si3N4 photonic crystal by APTES and BS3 (1.5 uM in 20 mM HEPES pH 7.4, 4 °C overnight), blocked with 5% non-fat dried milk in PBS; p53 1.5 uM in PBS, 20 min at room temperature, washed with PBS; transmission spectrum at θ = 0°

For “p53 protein fragment (interacting domain of p53) (domain or fragment)”, the surface density of the complex [1] was 0.24 and the shift of the resonance wavelength [2] was 2.4 nm.
